Assay results: US6835378B2, “Method and compositions for inhibiting thrombin-induced coagulation” (The Texas A&M University System University, priority 2001, dated 2004)
Entries after “also recorded” stand apart in the source; their conditions may differ.

Test system: contortrixobin digestion of Fg
Experiment: Fibrinopeptide B release by contortrixobin, HPLC
Type: biochemical, human
Conditions: 1:5 ratio of Fg to rSdrG(50-597) (1.5 μM), 60 min
Description: Superimposed chromatograms show the amount of fibrinopeptide released when the Fg-contortrixobin sample has no SdrG present (upper curve) and when the Fg-contortrixobin sample is incubated with 1.5 μM rSdrG(50-597) (lower curve) at the 60 min time point.
Analysis of Fibrinopeptide B Release by HPLC—As in chapter two, we monitored the fibrinopeptide release in the presence of SdrG and the β-fibrinogenase contortrixobin. The HPLC chromatograms shown in FIG. 10 show the expected fibrinopeptide release following digestion of Fg with contortrixobin superimposed with the fibrinopeptide release when Fg and contortrixobin are incubated with rSdrG(50-597). […] This is most likely because FpA is still intact on the Fg molecule, thus contortrixobin is not as effective at cleaving Fg due to steric hindrance from FpA.

B1: rSdrG(50-597): recombinant His-tagged A region (residues 50-597) of SdrG, a fibrinogen-binding MSCRAMM from S. epidermidis (protein)
chain: HHHHHHAEENTVQDVKDSNMDDELSDSNDQSSNEEKNDVINNSQSINTDDDNQIKKEETNSNDAIENRSKDITQSTTNVDENEATFLQKTPQDNTQLKEEVVKEPSSVESSNSSMDTAQQPSHTTINSEASIQTSDNEENSRVSDFANSKIIESNTESNKEENTIEQPNKVREDSITSQPSSYKNIDEKISNQDELLNLPINEYENKVRPLSTTSAQPSSKRVTVNQLAAEQGSNVNHLIKVTDQSITEGYDDSDGIIKAHDAENLIYDVTFEVDDKVKSGDTMTVNIDKNTVPSDLTDSFAIPKIKDNSGEIIATGTYDNTNKQITYTFTDYVDKYENIKAHLKLTSYIDKSKVPNNNTKLDVEYKTALSSVNKTITVEYQKPNENRTANLQSMFTNIDTKNHTVEQTIYINPLRYSAKETNVNISGNGDEGSTIIDDSTIIKVYKVGDNQNLPDSNRIYDYSEYEDVTNDDYAQLGNNNDVNINFGNIDSPYIIKVISKYDPNKDDYTTIQQTVTMQTTINEYTGEFRTASYDNTIAFSTSSGQGQGDLPPE
In the case of B1, the “FpB release by contortrixobin” value is reported as “effectively inhibit FpB release; also recorded: decrease in the amount of FpB released” and the “FpB release by contortrixobin” value (listed as rSdrG (50-597)) is reported as “A decrease in the amount of FpB release”.
